We go through 1 substance from patent US20130189725A1, “HUMAN IN VITRO MODEL OF THE BLOOD CER[…] BARRIER” (RUPRECHT-KARLS-UNIVERSITAT HEIDELBERG, priority 2010, published 2013).

Where only a bound is given, the exact number is not on record here.

For the data set, the system named is HIBCPP monolayers. As to the kind of experiment: Paracellular permeability: FITC-inulin flux through HIBCPP layers on transwell filters. The data set is classed as in vitro ADME, human. The settings on record: standard and inverted transwell filter system. The procedure:
HIBCPP were cultured in a 1:1 mixture of DMEM medium and HAM's F12 medium, supplemented with 4 mM L-Glutamine, 5 μg/ml insulin, penicillin (100 U/ml) and streptomycin (100 μg/ml), and 15% (v/v) heat inactivated fetal calf serum (FCS) [HIBCPP-medium with 15% (v/v) FCS]. Since HIBCPP have been described to change doubling time with increasing passages, only cells between passage 33 and 37 were used. For filter-based assays, the amounts of cells indicated in the respective experiments were seeded on the filter membrane of transwell filters (pore diameter 3.0 μm, pore density 2.0×10^6 pores per cm^2, 0.33 cm^2; Greiner Bio-one, Frickenhausen, Germany). For the standard transwell filter system, cells were seeded into the upper well of the transwell filter. Subsequently, cells were washed once each of the following two days. Medium was added to the lower well not before day two after seeding. […]
Paracellular permeability of HIBCPP monolayers was determined by measuring the passage of a FITC-inulin (Sigma, Deisenhofen, Germany) tracer solution (100 μg/ml) from the apical to the basolateral compartment of transwell filters carrying the monolayers in a Tecan Infinite M200 Multiwell reader (Tecan, Switzerland) employing Magellan V6.6 software.

Consider FITC-inulin, for which the “permeability for FITC-inulin” value (after day 0, simultaneously with development of a high TEER, 15%, 1% or no serum) is on record as “below 1%”. In addition, where the note is “up to day 0 when TEER values are still low, tracer 100 μg/ml”, the FITC-inulin flux is listed as not below 3%.
